Results published in paper PMC6249299, “A split luciferase-based probe for quantitative proximal determination of Gαq signalling in live cells” (Scientific Reports, 2018).

T1: CBRN-PLC-β3 fusion protein (phospholipase C-β3 with CBRN at its N-terminus) (UniProt Q01970 1-1234)
T1 construct: phospholipase C-β3 (PLC-β3); also called N-terminally-tagged PLC-β3; PLC-β3 sensor protein; not shown: CBRN (N-terminal fragment of red click-beetle luciferase, amino acids 1-416), N-terminal, kept
T1 sequence (looked up): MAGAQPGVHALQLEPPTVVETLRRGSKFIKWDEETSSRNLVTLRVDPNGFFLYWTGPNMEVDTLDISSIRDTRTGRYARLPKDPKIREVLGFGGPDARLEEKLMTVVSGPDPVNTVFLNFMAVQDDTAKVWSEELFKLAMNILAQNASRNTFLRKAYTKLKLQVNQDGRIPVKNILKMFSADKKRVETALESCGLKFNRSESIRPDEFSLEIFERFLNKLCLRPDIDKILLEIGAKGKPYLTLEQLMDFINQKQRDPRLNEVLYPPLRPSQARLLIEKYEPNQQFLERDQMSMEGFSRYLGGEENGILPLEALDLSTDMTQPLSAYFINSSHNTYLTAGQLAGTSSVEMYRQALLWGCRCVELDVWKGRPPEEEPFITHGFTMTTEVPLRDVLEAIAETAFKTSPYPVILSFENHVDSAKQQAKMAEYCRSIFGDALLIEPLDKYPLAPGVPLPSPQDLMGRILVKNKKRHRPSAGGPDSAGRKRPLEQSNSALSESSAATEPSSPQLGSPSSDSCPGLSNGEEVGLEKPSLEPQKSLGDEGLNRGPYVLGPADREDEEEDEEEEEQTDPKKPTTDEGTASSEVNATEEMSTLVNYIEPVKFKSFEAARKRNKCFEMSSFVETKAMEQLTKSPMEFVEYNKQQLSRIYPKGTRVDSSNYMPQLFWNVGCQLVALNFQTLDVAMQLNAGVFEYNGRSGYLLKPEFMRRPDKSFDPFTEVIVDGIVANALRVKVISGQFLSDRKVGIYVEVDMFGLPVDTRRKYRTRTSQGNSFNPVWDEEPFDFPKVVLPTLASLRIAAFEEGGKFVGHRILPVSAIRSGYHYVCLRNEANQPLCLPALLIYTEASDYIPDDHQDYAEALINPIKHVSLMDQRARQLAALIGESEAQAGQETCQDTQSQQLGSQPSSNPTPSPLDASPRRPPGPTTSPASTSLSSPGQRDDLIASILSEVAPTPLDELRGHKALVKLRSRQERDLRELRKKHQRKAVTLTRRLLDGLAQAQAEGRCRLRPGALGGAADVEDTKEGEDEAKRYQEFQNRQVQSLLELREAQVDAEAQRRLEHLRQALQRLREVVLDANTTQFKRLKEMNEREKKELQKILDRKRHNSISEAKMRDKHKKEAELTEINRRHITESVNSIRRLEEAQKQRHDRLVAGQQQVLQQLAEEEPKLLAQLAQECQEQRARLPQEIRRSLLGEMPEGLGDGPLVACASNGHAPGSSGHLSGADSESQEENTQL

B1: Gαq(123) fusion protein (CBRC integrated into the Gαq sequence after amino acid 123) (natural protein, UniProt P50148 1-359, looked up)
chain: MTLESIMACCLSEEAKEARRINDEIERQLRRDKRDARRELKLLLLGTGESGKSTFIKQMRIIHGSGYSDEDKRGFTKLVYQNIFTAMQAMIRAMDTLKIPYKYEHNKAHAQLVREVDVEKVSAFENPYVDAIKSLWNDPGIQECYDRRREYQLSDSTKYYLNDLDRVADPAYLPTQQDVLRVRVPTTGIIEYPFDLQSVIFRMVDVGGQRSERRKWIHCFENVTSIMFLVALSEYDQVLVESDNENRMEESKALFRTIITYPWFQNSSVILFLNKKDLLEEKIMYSHLVDYFPEYDGPQRDAQAAREFILKMFVDLNPDSDKIIYSHFTCATDTENIRFVFAAVKDTILQLNLKEYNLV
notes: Gαq (G protein alpha q subunit); also called modified Gαq; Gαq sensor protein
B2: Gαq(97) fusion protein (CBRC integrated into the Gαq sequence after amino acid 97) (natural protein, UniProt P50148 1-359, looked up)
chain: B1 chain
notes: Gαq (G protein alpha q subunit); CBRC inserted after amino acid 97 with flexible Gly/Ser linkers; source: HEK293T, transfected, in cells; not shown: CBRC (C-terminal fragment of red click-beetle luciferase, amino acids 394-542), internal (after residue 97), kept

Molecular target: T1, CBRN-PLC-β3 fusion protein …
Assay: split reporter (BiFC, NanoBiT); split click-beetle luciferase complementation in live HEK293T cells expressing the sensor and a GPCR (hH1R; also hM1,3,5R, hNTS1R); D-luciferin added to the cells, L-15 with 5% FCS, 37 °C; stimulated with agonist (histamine)
Details: partners not purified

Binder	S/B ratio (signal-to-background of luminescence)	fold lower S/B ratio than the sensor with Gαq(123) [fold]
B1	~5	–
B2	–	~3
